Tested on: MSR1 negative B16F10.9 cells
Test: Flow cytometry cell surface binding, MSR1 negative cells
Set-up: species or system mouse
Protocol: Relative cell surface binding of the anti-MSR1 antibodies to mouse MSR1 expressing cells was determined by flow cytometry using MSR1 positive RAW264.7 cells (ATCC, Catalog #TIB-71) and MSR1 negative B16F10.9 cells (Lin et al. 1998. PNAS 95:8829-8834). For the assay, cells were plated in PBS without calcium and magnesium (VWR Cat #45000-446) and 2% FBS (Saradigm Cat #1500-500) (Staining Buffer) in 96 well V-bottom plates (Axygen Scientific, Cat #P-96-450-V-C-S). To block binding to Fc receptors, RAW264.7 cells were incubated for 30 minutes at 4° C. with 500 μg/mL mouse IgG (Jackson ImmunoResearch, Cat #015-000-003) diluted in staining buffer, while B16F10.9 cells remained in staining buffer. Following Fc receptor blocking, 10 μg/mL of anti-MSR1 antibodies or an isotype control antibody were added to the cells and were subsequently incubated for 30 minutes on ice. For a positive control, a commercial anti-mouse MSR1 (Sino Biological, Cat #50129-R004) antibody was used, while a rabbit IgG antibody (Thermo Scientific, Cat #26102) was used as a negative control. […] Cells were subsequently washed and fixed using a 50% solution of Cytofix (BD Biosciences, Cat #554655) diluted in PBS. […] The signal to noise (S/N) was determined by calculating the ratio of the anti-MSR1 antibodies or the control antibodies MFI to the unstained sample MFI (Table 16).

B1: H1H21234N-N297Q: "An anti-MSR1 antibody H1H21234N containing a N297Q mutation, which eliminates N-linked glycosylation of the Fc at this site" (antibody, V domains shown)
VH: QVQLQESGPGLVKPSETLSLTCTVTGGSISRNYWSWIRQPPGKGLEWIGYIYYSGSIDYNPSLKSRVTISVDTSKNQFSLKLSSMTAADTAVYYCARDRWNWKYGMDVWGQGTTVIVSS
VL: EIVLTQSPGTLSLSPGERATLSCRASQTVRNNYLAWYHQKPGQAPRLLIYGASSRATGIPDRFSGSGSGTDFTLTISRLEPEDFTVYYCHQYGNSPWTFGQGTKMEIKR
In the case of B1, the “B16F10.9 MFI” value (10 μg/mL antibody, flow cytometry) is reported as 3499 and the “B16F10.9 S/N” value (ratio of antibody MFI to unstained sample MFI) is reported as 1.
